The target in this experiment is Dendritic cell-specific intercellular adhesion molecule 3-grabbing nonintegrin (DC-SIGN), on the Biacore chip (UniProt Q9NNX6). As to the kind of experiment: SPR.
Sequence of UniProt Q9NNX6 (Q9NNX6 whole entry): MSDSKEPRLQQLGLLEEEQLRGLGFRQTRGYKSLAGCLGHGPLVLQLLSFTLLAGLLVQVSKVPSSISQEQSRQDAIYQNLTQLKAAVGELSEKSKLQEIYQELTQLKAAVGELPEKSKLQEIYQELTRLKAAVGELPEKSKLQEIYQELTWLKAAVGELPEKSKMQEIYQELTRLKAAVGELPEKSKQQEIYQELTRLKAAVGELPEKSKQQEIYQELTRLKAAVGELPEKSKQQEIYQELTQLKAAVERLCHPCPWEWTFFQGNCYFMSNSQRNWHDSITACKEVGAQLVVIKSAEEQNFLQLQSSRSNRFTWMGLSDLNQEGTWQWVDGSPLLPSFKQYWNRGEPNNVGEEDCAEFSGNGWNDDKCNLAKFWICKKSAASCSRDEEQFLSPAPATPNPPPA

“Surface layer protein B (SlpB) from Levilactobacillus brevis JCM 1059 (natural protein)” yielded a dissociation constant Kd of 30.3 nM.

Source of the values: article doi:10.1101/2023.04.06.534471.
